Results published in US11278600B2, “Human alpha-galactosidase variants” (Codexis, Inc., priority 2014, dated 2022).

Legend:
Assay type in all cases: biochemical
[1] = HTP-analysis of supernatants pretreated with acid (MUGal hydrolysis); conditions: activity of the variant/activity of Rd7BB (SEQ ID NO: 44); challenge at pH 3.5
Method in brief: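 Yeast INVSc1 supernatant, GLA variants; acid challenge: McIlvaine pH 3.3-4.3, 37° C., 1-3 h. Assay: MUGal in McIlvaine pH 4.8 plus citrate pH 4.3, 37° C., 30-180 min, Na2CO3 stop, Ex 355/Em 448 nm.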

[2] = HTP-analysis of yeast culture supernatants, no challenge (MUGal hydrolysis); conditions: activity of the variant/activity of Rd7BB (SEQ ID NO: 44)
Method in brief: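 GLA variants expressed in yeast INVSc1, secreted into SD-Ura broth over 66-84 h at 30° C; clarified supernatants tested without challenge. Supernatant mixed with McIlvaine buffer pH 4.8 and 2 mM MUGal (citrate/KCl, pH 4.6), 37° C for 30-180 min, carbonate-quenched, fluorescence Ex 355/Em 448 nm.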

[3] = HTP-analysis of supernatants pretreated with base (MUGal hydrolysis); conditions: activity of the variant/activity of Rd7BB (SEQ ID NO: 44); challenge at pH 7.5
Method in brief: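 GLA variants were secreted by transformed INVSc1 yeast grown 66-84 h at 30° C. Supernatants were exposed to neutral-to-basic buffers (pH 7.0-9.7) at 37° C for 1-18 h, then assayed with MUGal in acidic citrate/McIlvaine buffer, with fluorescence read after quenching.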

Molecule	Relative Activity of GLA Variants After Challenge at pH 3.5 [1]	Relative Activity of GLA Variants After No Challenge (NC) [2]	Relative Activity of GLA Variants After Challenge at pH 7.5 [3]
677 (protein, Synthetic Polypeptide sequence of Variant No. 677 of mature Human GLA) LDNGLARTPTMGWLHWERFMCNLDCQEEPDSCISEKLFMEMAERMVTEGWKDAGYEYLCIDDCWMAPQRDSEGRLQADPQRFPHGIRQLANHVHSKGLKLGIYADVGNKTCAGFPGSFGYYDIDAQTFADWGVDLLKFDGCYCDSLENLADGYKHMSLALNRTGRPIVYSCEWPLYMWPFQKPNYTEIRQYCNHWRNFADIDDSWASIKSILDWTSRNQERIVDVAGPGGWNDPDMLVIGNFGLSWDQQVTQWALWAIMAAPLFMSNDLRAIDSQARALLQDKDVIAINQDPLGKQGYQLRKGDNFEVWERPLSGDAWAVAIINRQEIGGPRSYTIPVASLGKGVACNPACFITQLLPVKRQLGFYNWTSRLKSHINPTGTVLLQLENTMQTSLKDLL	+ (>0.5 to 1.5 relative activity over Rd7BB (SEQ ID NO: 44))	+ (>0.5 to 1.5 relative activity over Rd7BB (SEQ ID NO: 44))	− (<0.5 relative activity to Rd7BB (SEQ ID NO: 44))
640 (protein, Synthetic Polypeptide sequence of Variant No. 640 of mature Human GLA) LDNGLARTPPMGWLHWERFMCNLDCQEEPDSCISEKLFEEMADRMVTEGWKDAGYEYLCIDDCWMAPQRDSEGRLQADPQRFPHGIRQLANHVHSKGLKLGIYADVGNKTCAGFPGSFGYYDIDAQTFADWGVDLLKFDGCYCDSLENLADGYKHMSLALNRTGRPIVYSCEWPLYMWPFQKPNYTEIRQYCNHWRNFADIDDSWASIKSILDWTSRNQERIVDVAGPGGWNDPDMLVIGNFGLSWDQQVTQMALWAIMAAPLFMSNDLRAISPQAKALLQDKDVIAINQDPLGKQGYQLRKGDNFEVWERPLSGDAWAVAIINRQEIGGPRSYTIPVASLGKGVACNPACFITQLLPVKRQLGFYNWTSRLKSHINPTGTVLLQLENTMQTSLKDLL	+ (>0.5 to 1.5 relative activity over Rd7BB (SEQ ID NO: 44))	+ (>0.5 to 1.5 relative activity over Rd7BB (SEQ ID NO: 44))	+ (>0.5 to 1.5 relative activity over Rd7BB (SEQ ID NO: 44))
678 (protein, Synthetic Polypeptide sequence of Variant No. 678 of mature Human GLA) LDNGLARTPTMGWLHWERFMCNLDCQEEPDSCISEKLFMEMAERMVTEGWKDAGYEYLCIDDCWMAPQRDSEGRLQADPQRFPHGIRQLANHVHSKGLKLGIYADVGNKTCAGFPGSFGYYDIDAQTFADWGVDLLKFDGCYCDSLENLADGYKHMSLALNRTGRPIVYSCEWPLYMWPFQKPNYTEIRQYCNHWRNFADIDDSWASIKSILDWTSRNQERIVDVAGPGGWNDPDMLVIGNFGLSWDQQVTQWALWGIMAAPLFMSNDLRAISPQARALLLDKDVIAINQDPLGKQGYQLRKGDNFEVWERPLSGDAWDVAIINRQEIGGPRSYTIPVASLGKGVACNPACFITQLLPVKRQLGFYNWTSRLKSHINPTGTVLLQLENTMQTSLKDLL	− (<0.5 relative activity to Rd7BB (SEQ ID NO: 44))	− (<0.5 relative activity to Rd7BB (SEQ ID NO: 44))	− (<0.5 relative activity to Rd7BB (SEQ ID NO: 44))
679 (protein, Synthetic Polypeptide sequence of Variant No. 679 of mature Human GLA) LDNGLARTPPMGWLHWERFMCNLDCQEEPDSCISEKLFEEMAERMVTEGWKDAGYEYLCIDDCWMAPQRDSEGRLQADPQRFPHGIRQLANHVHSKGLKLGIYADVGNKTCAGFPGSFGYYDIDAQTFADWGVDLLKFDGCYCDSLENLADGYKHMSLALNRTGRPIVYSCEWPLYMWPFQKPNYTEIRQYCNHWRNFADIDDSWASIKSILDWTSRNQERIVDVAGPGGWNDPDMLVIGNFGLSWDQQVTQMALWAIMAAPLFMSNDLRAISPQAKALLQDKDVIAINQDPLGKQGYQLRKGDLFEVWERPLSGDAWAVAIINRQEIGGPRSYTIPVASLGKGVACNPACFITQLLPVKRQLGFYNWTSRLKSHINPTGTVLLQLENTMQTSLKDLL	+ (>0.5 to 1.5 relative activity over Rd7BB (SEQ ID NO: 44))	+ (>0.5 to 1.5 relative activity over Rd7BB (SEQ ID NO: 44))	+ (>0.5 to 1.5 relative activity over Rd7BB (SEQ ID NO: 44))
680 (protein, Synthetic Polypeptide sequence of Variant No. 680 of mature Human GLA) LDNGLARTPPMGWLHWERFMCNLDCQEEPDSCISEKLFEEMAERMVTEGWKDAGYEYLCIDDCWMAPQRDSEGRLQADPQRFPHGIRQLANHVHSKGLKLGIYADVGNKTCAGFPGSFGYYDIDAQTFADWGVDLLKFDGCYCDSLENLADGYKHMSLALNRTGRPIVYSCEWPLYMWPFQKPNYTEIRQYCNHWRNFADIDDSWASIKSILDWTSRNQERIVDVAGPGGWNDPDMLVIGNFGLSWDQQVTQMALWAIMAAPLFMSNDLRAISPQAKALLQDKDVIAINQDPLGKQGYQLRKGDNFEVWERPLSGDAWAVAIINRQEIGGPRSYTIPVASLGKGVACNPACFITQLLPVKRQLGFYNWTSRLKSHINPTGTVLLQLENTMQTSLKDLL	+ (>0.5 to 1.5 relative activity over Rd7BB (SEQ ID NO: 44))	+ (>0.5 to 1.5 relative activity over Rd7BB (SEQ ID NO: 44))	+ (>0.5 to 1.5 relative activity over Rd7BB (SEQ ID NO: 44))
681 (protein, Synthetic Polypeptide sequence of Variant No. 681 of mature Human GLA) LDNGLAPTPTMGWLHWERFMCNLDCQEEPDSCISEKLFMEMAERMVTEGWKDAGYEYLCIDDCWMAPQRDSEGRLQADPQRFPHGIRQLANHVHSKGLKLGIYADVGNKTCAGFPGSFGYYDIDAQTFADWGVDLLKFDGCYCDSLENLADGYKHMSLALNRTGRPIVYSCEWPLYMWPFQKPNYTEIRQYCNHWRNFADIDDSWASIKSILDWTSRNQERIVDVAGPGGWNDPDMLVIGNFGLSWDQQVTQMALWAIMAAPLFMSNDLRAISPQAKALLQDKDVIAINQDPLGKQGYQLRKGDNFEVWERPLSGDAWAVAIINRQEIGGPRSYTIPVASLGKGVACNPACFITQLLPVKRQLGFYNWTSRLKSHINPTGTVLLQLENTMQTSLKDLL	− (<0.5 relative activity to Rd7BB (SEQ ID NO: 44))	− (<0.5 relative activity to Rd7BB (SEQ ID NO: 44))	− (<0.5 relative activity to Rd7BB (SEQ ID NO: 44))
